In publication PMC7613103 (Science signaling, 2020):
Each block holds one molecule with its values, some of them ahead of it.

Experiments:
[1] = biological target: Cys95 (UniProt position 95, ANGEICVNVLK); assay: chemical modification; conditions: 10 °C; 100 mM NaCl; Free reduced enzyme, 14.4 μM, no ubiquitin or other ligand
[2] = biological target: UBE2S^UBC (UBC domain of UBE2S, residues 1-156) (human) (UniProt Q16763); assay: cross-linking + SEC-MALS
[3] = biological target: Cys118 (UniProt position 118, LLTIKCLLIHP); assay: chemical modification; conditions: 10 °C; 100 mM NaCl; Free reduced enzyme, 14.4 μM, no ubiquitin or other ligand
[4] = biological target: T1, UBE2S (full-length, untagged, purified) (human), Q16763; assay: cross-linking + SEC-MALS; conditions: remark: other sources report otherwise
T1 chain: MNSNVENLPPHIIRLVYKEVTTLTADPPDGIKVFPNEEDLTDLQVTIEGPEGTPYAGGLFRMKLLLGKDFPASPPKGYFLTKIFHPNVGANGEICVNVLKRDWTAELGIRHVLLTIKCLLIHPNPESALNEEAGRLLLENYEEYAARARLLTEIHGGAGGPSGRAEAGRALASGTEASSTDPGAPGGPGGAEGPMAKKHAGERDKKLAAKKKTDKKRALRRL

[5] = biological target: the molecule itself; assay: cross-linking

Molecule: Ubiquitin-conjugating enzyme E2 S (UBE2S) C118S variant (Homo sapiens; C118S)
pKa [1]: 6.4 ± 0.2

stoichiometry N [2]: 2
Molecule: UBE2S^UBC (UBC domain of UBE2S, residues 1-156) (from UniProt Q16763 1-156) (domain or fragment)

Molecule: Ubiquitin-conjugating enzyme E2 S (UBE2S) C95S variant (Homo sapiens; C95S)
pKa [3]: 9.4 ± 0.1

stoichiometry N [4]: 2
B1: UBE2S (full-length, untagged, purified), Q16763 1-222 (enzyme)
chain: MNSNVENLPPHIIRLVYKEVTTLTADPPDGIKVFPNEEDLTDLQVTIEGPEGTPYAGGLFRMKLLLGKDFPASPPKGYFLTKIFHPNVGANGEICVNVLKRDWTAELGIRHVLLTIKCLLIHPNPESALNEEAGRLLLENYEEYAARARLLTEIHGGAGGPSGRAEAGRALASGTEASSTDPGAPGGPGGAEGPMAKKHAGERDKKLAAKKKTDKKRALRRL

B2: UBE2S C95S (full-length) (enzyme)
chain: MNSNVENLPPHIIRLVYKEVTTLTADPPDGIKVFPNEEDLTDLQVTIEGPEGTPYAGGLFRMKLLLGKDFPASPPKGYFLTKIFHPNVGANGEISVNVLKRDWTAELGIRHVLLTIKCLLIHPNPESALNEEAGRLLLENYEEYAARARLLTEIHGGAGGPSGRAEAGRALASGTEASSTDPGAPGGPGGAEGPMAKKHAGERDKKLAAKKKTDKKRALRRL
binding result [5]: binds
